Results: publication PMC13480645

Molecular target: MERS-CoV S2 stem helix peptide (MERS-CoV)
Assay: BLI

Chain of S2P6 (antibody) (VH): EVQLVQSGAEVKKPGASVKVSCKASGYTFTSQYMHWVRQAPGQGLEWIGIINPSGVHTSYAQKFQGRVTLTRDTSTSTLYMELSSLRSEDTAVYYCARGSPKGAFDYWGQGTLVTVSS
Chain of S2P6 (antibody) (VL): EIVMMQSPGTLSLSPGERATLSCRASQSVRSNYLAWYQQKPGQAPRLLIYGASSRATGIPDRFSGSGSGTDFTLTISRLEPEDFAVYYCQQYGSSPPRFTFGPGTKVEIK

S2P6 (antibody)
Kd: 0.723 nM
kon: 315000 M⁻¹ s⁻¹
